Test results as given in patent US20220089770A1 (Chugai, published 2022).

T1: human XPR1-Myc (human, UniProt Q9UBH6 1-696)
T1 sequence: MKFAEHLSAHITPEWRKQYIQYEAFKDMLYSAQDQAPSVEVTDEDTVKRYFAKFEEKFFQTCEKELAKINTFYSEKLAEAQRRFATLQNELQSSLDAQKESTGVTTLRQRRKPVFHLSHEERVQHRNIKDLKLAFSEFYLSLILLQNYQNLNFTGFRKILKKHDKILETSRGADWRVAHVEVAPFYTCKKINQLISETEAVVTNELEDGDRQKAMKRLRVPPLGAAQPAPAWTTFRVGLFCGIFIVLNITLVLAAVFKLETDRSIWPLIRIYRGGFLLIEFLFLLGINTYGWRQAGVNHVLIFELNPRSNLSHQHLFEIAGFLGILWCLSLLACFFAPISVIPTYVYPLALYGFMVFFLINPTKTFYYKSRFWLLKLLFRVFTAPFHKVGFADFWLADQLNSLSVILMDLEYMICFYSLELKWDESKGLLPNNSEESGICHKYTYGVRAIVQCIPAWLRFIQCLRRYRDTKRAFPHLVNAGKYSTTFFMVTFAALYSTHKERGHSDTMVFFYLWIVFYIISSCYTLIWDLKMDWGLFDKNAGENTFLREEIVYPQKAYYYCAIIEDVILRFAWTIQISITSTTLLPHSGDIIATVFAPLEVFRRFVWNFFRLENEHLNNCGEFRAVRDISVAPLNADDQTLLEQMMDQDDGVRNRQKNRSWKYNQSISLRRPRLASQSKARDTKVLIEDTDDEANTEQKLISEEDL

T2: Myc-human MARVELD3 (human, UniProt Q96A59 2-401)
T2 construct: also called human MARVELD3 isoform2; MARVELD3 isoform2
T2 sequence: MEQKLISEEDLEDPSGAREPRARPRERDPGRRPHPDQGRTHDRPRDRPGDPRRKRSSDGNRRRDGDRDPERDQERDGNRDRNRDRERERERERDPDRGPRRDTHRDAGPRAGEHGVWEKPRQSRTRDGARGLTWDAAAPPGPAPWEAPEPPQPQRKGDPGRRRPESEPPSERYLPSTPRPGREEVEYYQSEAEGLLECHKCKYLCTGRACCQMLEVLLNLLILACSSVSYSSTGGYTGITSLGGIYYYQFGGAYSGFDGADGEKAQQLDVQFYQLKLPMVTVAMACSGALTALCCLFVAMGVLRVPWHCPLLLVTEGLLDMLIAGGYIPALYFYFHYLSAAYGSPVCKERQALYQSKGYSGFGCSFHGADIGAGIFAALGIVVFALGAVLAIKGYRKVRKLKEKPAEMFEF


Columns and labels:
human XPR1-Myc = target: T1, human XPR1-Myc; experiment: flow cytometry on Expi293 cells transiently expressing human XPR1-Myc against cells with empty vector; anti-human IgG Fc Alexa488
Experimental: A plasmid vector expressing in mammalian cells full-length human XPR1 (amino acid SEQ ID NO: 1) with a Myc tag sequence ([…], SEQ ID NO: 25) added to the C-terminus (human XPR1-Myc, nucleotide SEQ ID NO: 26, amino acid SEQ ID NO: 27) was constructed. The protein was transiently expressed in Expi293 cells (Thermo Fisher Scientific) by introducing the constructed plasmid vector into Expi293 cells. At the same time, Expi293 cells transfected with an empty plasmid vector were also prepared as a control. The Expi293 cells transfected with an empty plasmid vector were stained with CellTrace FarRed (Thermo Fisher Scientific) and then mixed with the Expi293 cells made to express human XPR1-Myc, and subsequently reacted with the anti-human XPR1 antibody prepared in Example 6. […] The cells reacted with the antibody were measured by FACS Aria III (Becton, Dickinson and Company). The obtained data were analyzed by FlowJo ver.10. The live cell fraction, which was not stained with DAPI fluorescence, was separated into a fraction that was stained with CellTrace FarRed (cells transfected with the empty plasmid vector) and a fraction that was not stained with CellTrace FarRed (cells transfected with the human XPR1-Myc expression plasmid vector), and Alexa488 staining for each fraction was examined.

Myc-human MARVELD3 = target: T2, Myc-human MARVELD3; experiment: flow cytometry on Expi293 cells transiently expressing Myc-human MARVELD3 isoform2 against cells with empty vector; anti-human IgG Fc Alexa488
Excerpt: A plasmid vector that expresses, in mammalian cells, a molecule (Myc-human MARVELD3, nucleotide SEQ ID NO: 29, amino acid SEQ ID NO: 30) in which the Myc tag sequence ([…], SEQ ID NO: 25) has been added after the N-terminal methionine of full-length human MARVELD3 isoform2 (amino acid SEQ ID NO: 4), was introduced into Expi293 cells (Thermo Fisher Scientific), and the protein was transiently expressed in the Expi293 cells. At the same time, Expi293 cells transfected with an empty plasmid vector were also prepared as a control. The Expi293 cells transfected with an empty plasmid vector were stained with CellTrace FarRed (Thermo Fisher Scientific) and then mixed with the Expi293 cells made to express human MARVELD3 isoform2, and subsequently reacted with an anti-human MARVELD3 isoform2 antibody prepared in Example 9. […] The cells reacted with the antibody were measured by FACS Aria III (Becton, Dickinson and Company). The obtained data were analyzed by FlowJo ver.10. The live cell fraction, which was not stained with DAPI fluorescence, was separated into a fraction that was stained with CellTrace FarRed (cells transfected with the empty plasmid vector) and a fraction that was not stained with CellTrace FarRed (cells transfected with the human XPR1-Myc expression plasmid vector), and Alexa488 staining for each fraction was examined.

human NOX1-Strep = human NOX1-Strep (human, UniProt Q9Y5S8 1-564); experiment: flow cytometry on fixed, digitonin-treated Expi293 cells expressing human NOX1-Strep against cells with empty vector; anti-human IgG Fc Alexa488
Chain of human NOX1-Strep (Q9Y5S8 other isoform, or with tags, fused parts or gaps): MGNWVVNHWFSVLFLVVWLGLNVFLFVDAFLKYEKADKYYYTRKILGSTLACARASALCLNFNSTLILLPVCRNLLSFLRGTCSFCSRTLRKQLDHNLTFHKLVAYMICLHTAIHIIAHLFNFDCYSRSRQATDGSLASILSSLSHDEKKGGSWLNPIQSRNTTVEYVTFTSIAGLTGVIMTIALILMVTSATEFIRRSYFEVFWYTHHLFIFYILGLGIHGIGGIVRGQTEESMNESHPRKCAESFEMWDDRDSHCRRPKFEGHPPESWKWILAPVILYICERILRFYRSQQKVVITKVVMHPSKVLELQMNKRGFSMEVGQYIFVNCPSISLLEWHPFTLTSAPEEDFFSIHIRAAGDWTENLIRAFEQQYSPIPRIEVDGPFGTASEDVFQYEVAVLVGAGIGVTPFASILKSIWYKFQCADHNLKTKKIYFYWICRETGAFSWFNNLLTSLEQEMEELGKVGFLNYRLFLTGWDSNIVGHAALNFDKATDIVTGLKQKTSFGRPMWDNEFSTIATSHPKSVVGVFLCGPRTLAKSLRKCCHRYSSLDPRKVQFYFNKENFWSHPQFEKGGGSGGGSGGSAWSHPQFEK
Experimental: (§1) A plasmid vector expressing human NOX1-Strep (amino acid SEQ ID NO: 34) or a plasmid vector expressing NOX1_Nx1B_564-myc (amino acid SEQ ID NO: 33) was introduced into Expi293 cells (Thermo Fisher Scientific) to express the protein transiently. At the same time, Expi293 cells transfected with an empty plasmid vector were also prepared as a control. These cells were treated with 4% paraformaldehyde and 1% digitonin. The Expi293 cells transfected with an empty plasmid vector were stained with CellTrace FarRed (Thermo Fisher Scientific), the Expi293 cells transfected with the plasmid vector expressing human NOX1-Strep were stained with CellTrace FarRed and CellTrace Violet (Thermo Fisher Scientific), and then mixed with the Expi293 cells made to express NOX1_Nx1B_564-myc. Subsequently, the cells were reacted with an anti-human NOX1 antibody prepared in Example 13.
(§2) Then, anti-human IgG Fc cross-adsorbed Alexa488 (Invitrogen) was reacted to stain the anti-human NOX1 antibody. The cells reacted with the antibody were measured by FACS Aria III (Becton, Dickinson and Company). The obtained data were analyzed by FlowJo ver.10.

NOX1_Nx1B_564-myc = target: T3, NOX1_Nx1B_564-myc (human); experiment: flow cytometry on fixed, digitonin-treated Expi293 cells expressing NOX1_Nx1B_564-myc against cells with empty vector; anti-human IgG Fc Alexa488
T3 construct: Expressed in Expi293 cells treated with 4% paraformaldehyde and 1% digitonin before staining; also called human NOX1
T3 sequence (chain, as listed by the source limits assumed): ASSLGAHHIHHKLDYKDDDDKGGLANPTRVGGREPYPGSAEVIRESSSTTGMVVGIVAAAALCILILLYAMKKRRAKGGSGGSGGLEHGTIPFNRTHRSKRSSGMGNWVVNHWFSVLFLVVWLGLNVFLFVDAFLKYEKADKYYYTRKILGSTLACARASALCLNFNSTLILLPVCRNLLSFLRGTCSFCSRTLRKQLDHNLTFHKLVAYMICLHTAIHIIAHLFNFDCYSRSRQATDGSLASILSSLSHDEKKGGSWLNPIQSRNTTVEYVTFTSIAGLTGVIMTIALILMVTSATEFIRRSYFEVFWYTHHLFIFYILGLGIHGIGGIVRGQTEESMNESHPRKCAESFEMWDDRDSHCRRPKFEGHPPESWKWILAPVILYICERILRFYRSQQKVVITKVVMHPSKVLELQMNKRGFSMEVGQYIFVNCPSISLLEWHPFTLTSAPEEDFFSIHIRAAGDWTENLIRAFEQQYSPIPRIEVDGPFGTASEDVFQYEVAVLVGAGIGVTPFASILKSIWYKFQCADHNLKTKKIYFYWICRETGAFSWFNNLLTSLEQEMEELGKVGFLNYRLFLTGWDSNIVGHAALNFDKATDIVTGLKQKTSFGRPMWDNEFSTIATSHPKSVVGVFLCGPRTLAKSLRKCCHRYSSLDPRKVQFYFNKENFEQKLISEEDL
Experimental: as §1, §2

Row | binding result (human XPR1-Myc) | binding result (Myc-human MARVELD3) | binding result (human NOX1-Strep) | binding result (NOX1_Nx1B_564-myc) | Binder
1 | binds | – | – | – | XPB0062 (antibody, V domains shown, Rabbit variable regions inserted into an expression vector containing the IgG constant regions (recombinant antibody); detected with anti-human IgG Fc; also called anti-human XPR1 antibody) VH: QSLEESGGDLVKPGASLTLTCTASGFSFSSSYWICWVRQAPGKGLEWIACINAGNSGSTYYASWAKGRFTISKTSSTTVTLQMTSLTAADTATYFCARGSYSYGYVGYVYTTSTRLDLWGQGTLVTVSS VL: DVVMTQTPASVSEPVGGTVTIKCQASQNIGSDLAWYQQKPGQPPKLLIYRASTLASGVSSRFKGSGSGTQFTLTISDLECADAATYYCQCTYYGSIYVPNAFGGGTEVVVK
2 | – | binds | – | – | MDA0279 (antibody, V domains shown, Rabbit variable regions inserted into an expression vector containing the IgG constant regions; detected with anti-human IgG Fc; also called anti-human MARVELD3 isoform2 antibody) VH: QSLEESGGDLVKPGGTLTLTCTASGFSFSDWYWVGWVRQAPGKGLEWIGCIVTGNGHTYYASWAKGRFTISKTSSTTVTLQLNSLTAADTATYFCARGVGASRYALWGPGTLVTVSS VL: IVMTQTPSSKSVPVGDTVTINCQASESVASNWLSWYQQKPGQPPKLLIYFASTLASGVPSRFKGSGSGTQFTLTISDVVCDDAATYYCAGYKSDTTDGTAFGGGTEVVVK
3 | – | binds | – | – | MDA0314 (antibody, V domains shown, Rabbit variable regions inserted into an expression vector containing the IgG constant regions; detected with anti-human IgG Fc; also called anti-human MARVELD3 isoform2 antibody) VH: QSLEESGGRLVTPGTPLTLTCTASGFSLSYYFMTWVRQAPGKGLEYIGIIRVDGSGYYATWAKGRFTISRTSTTVELKITSPTTEDTATYFCARVGDWAFNIWGPGTLVTVSS VL: IKMTQTPASVSTAVGGTVSINCQASEDIESYLAWFQQKPGQRPKLLIYRASTLASGVSSRFKGSGSGTEFTLTISGVECADAATYYCQQGHTINNIDNVFGGGTEVVVK
4 | – | – | binds | binds | NXA0125 (antibody, V domains shown, Rabbit variable regions inserted into an expression vector containing IgG constant regions; detected with anti-human IgG Fc; also called anti-human NOX1 antibody) VH: QEQLEESGGDLVKPGASLTLTCTASGFSFNSNYFMCWVRQAPGKGLEWIACIYTGSSGGTYYATWAKGRFTISKTSSTTVTLQMTSLTAADTATYFCAGDTMTIPFNLWGPGTLVTVSS VL: QVLTQTASPVSAPVGGTVTINCQASQSVYNNNNLHWFQQKPGQRPKLLIYFASTLASGVSSRFKGSGSGTQFTLTISGVQCDDAATYYCQGEFSCSSADCNAFGGGTEVVVK
5 | – | – | binds | binds | NXA0164 (antibody, V domains shown, Rabbit variable regions inserted into an expression vector containing IgG constant regions; detected with anti-human IgG Fc; also called anti-human NOX1 antibody) VH: QSVEESGGRLVTPGTPLTLTCTVSGFSLSNYAMSWVRQAPGKGLEWIGIISSSGSTYYASWAKGRFTISKTSTTVDLKITSPTTEDTATYFCARDLDASTGTDIWGPGTLVTVSS VL: AVLTQTPSPVSAAVGGTVTINCQASQSVYSNNYLSWFQQKPGQPPKLLIYKASTLASGVPSRFKGSGSGTQFTLTISDVQCDDAATYYCAGDYKSSSDIRAFGGGTEVVVK
